Experimental data published in PMC13322254.
One block for each substance: values may come before it.

Columns and labels:
[1] = target: SB2F1 (Pseudomonas putida | Bradyrhizobium japonicum) (UniProt Q88JB0); experiment: SEC; analytical SEC, in the dark only, Superdex 200 10/300 GL, 20 mM tris pH 8.0, 40 mM NaCl, 0.5 ml/min
[2] = target: SB2F1 (Pseudomonas putida | Bradyrhizobium japonicum) (UniProt Q88JB0); experiment: SAXS + other: DLS; in solution with ATP and MgCl2, in the dark and after blue light illumination; SAXS at 10 °C in 20 mM Hepes pH 7.5, 150 mM NaCl, 2% glycerol, 2 mM TCEP, 1.5 mM ATP, 3 mM MgCl2, 0.64 to 4.18 mg/ml; DLS at 20 °C, ~1 mg/ml
[3] = target: SB2F1, SeMet-labeled (Pseudomonas putida | Bradyrhizobium japonicum) (UniProt Q88JB0); experiment: crystal structure; dark-grown crystals, sitting-drop vapor diffusion, 19 °C, 10 to 12% PEG-8000, 0.2 M NaCl, 0.1 M sodium citrate pH 5.8 to 6.1, 1 mM ATP, 2 mM MgCl2; for SB2F1 also dark-grown crystals illuminated with blue light before data collection
[4] = target: SB2F1-I66R, SeMet-labeled (Pseudomonas putida | Bradyrhizobium japonicum) (UniProt Q88JB0); experiment: crystal structure; crystals grown under continuous blue light (450 nm), 19 °C, 16 to 20% PEG-3350, 0.2 M LiSO4, 0.1 M bicine pH 9.0 to 9.3, 1 mM ATP, 2 mM MgCl2
[5] = target: SB2F1-I66R, SeMet-labeled (Pseudomonas putida | Bradyrhizobium japonicum) (UniProt Q88JB0); experiment: crystal structure; dark-grown crystals, sitting-drop vapor diffusion, 19 °C, 10 to 12% PEG-8000, 0.2 M NaCl, 0.1 M sodium citrate pH 5.8 to 6.1, 1 mM ATP, 2 mM MgCl2; for SB2F1 also dark-grown crystals illuminated with blue light before data collection

stoichiometry N [1]: 2
stoichiometry N [2]: 2
Substance: SB2F1 (from UniProt Q88JB0 1-120) (enzyme)

stoichiometry N [3]: 2
Substance: SB2F1, SeMet-labeled (from UniProt Q88JB0 1-120) (enzyme)

stoichiometry N [4]: 2
stoichiometry N [5]: 2
Substance: SB2F1-I66R, SeMet-labeled (from UniProt Q88JB0 1-120) (enzyme)
